# B1: Phospholipid-transporting ATPase IH (Homo sapiens), P98196 (parent)
# chain: MDCSLVRTLVHRYCAGEENWVDSRTIYVGHREPPPGAEAYIPQRYPDNRIVSSKYTFWNFIPKNLFEQFRRVANFYFLIIFLVQLIIDTPTSPVTSGLPLFFVITVTAIKQGYEDWLRHKADNAMNQCPVHFIQHGKLVRKQSRKLRVGDIVMVKEDETFPCDLIFLSSNRGDGTCHVTTASLDGESSHKTHYAVQDTKGFHTEEDIGGLHATIECEQPQPDLYKFVGRINVYSDLNDPVVRPLGSENLLLRGATLKNTEKIFGVAIYTGMETKMALNYQSKSQKRSAVEKSMNAFLIVYLCILISKALINTVLKYMWQSEPFRDEPWYNQKTESERQRNLFLKAFTDFLAFMVLFNYIIPVSMYVTVEMQKFLGSYFITWDEDMFDEETGEGPLVNTSDLNEELGQVEYIFTDKTGTLTENNMEFKECCIEGHVYVPHVICNGQVLPESSGIDMIDSSPSVNGREREELFFRALCLCHTVQVKDDDSVDGPRKSPDGGKSCVYISSSPDEVALVEGVQRLGFTYLRLKDNYMEILNRENHIERFELLEILSFDSVRRRMSVIVKSATGEIYLFCKGADSSIFPRVIEGKVDQIRARVERNAVEGLRTLCVAYKRLIQEEYEGICKLLQAAKVALQDREKKLAEAYEQIEKDLTLLGATAVEDRLQEKAADTIEALQKAGIKVWVLTGDKMETAAATCYACKLFRRNTQLLELTTKRIEEQSLHDVLFELSKTVLRHSGSLTRDNLSGLSADMQDYGLIIDGAALSLIMKPREDGSSGNYRELFLEICRSCSAVLCCRMAPLQKAQIVKLIKFSKEHPITLAIGDGANDVSMILEAHVGIGVIGKEGRQAARNSDYAIPKFKHLKKMLLVHGHFYYIRISELVQYFFYKNVCFIFPQFLYQFFCGFSQQTLYDTAYLTLYNISFTSLPILLYSLMEQHVGIDVLKRDPTLYRDVAKNALLRWRVFIYWTLLGLFDALVFFFGAYFVFENTTVTSNGQIFGNWTFGTLVFTVMVFTVTLKLALDTHYWTWINHFVIWGSLLFYVVFSLLWGGVIWPFLNYQRMYYVFIQMLSSGPAWLAIVLLVTISLLPDVLKKVLCRQLWPTATERVQTKSQCLSVEQSTIFMLSQTSSSLSF
# partner: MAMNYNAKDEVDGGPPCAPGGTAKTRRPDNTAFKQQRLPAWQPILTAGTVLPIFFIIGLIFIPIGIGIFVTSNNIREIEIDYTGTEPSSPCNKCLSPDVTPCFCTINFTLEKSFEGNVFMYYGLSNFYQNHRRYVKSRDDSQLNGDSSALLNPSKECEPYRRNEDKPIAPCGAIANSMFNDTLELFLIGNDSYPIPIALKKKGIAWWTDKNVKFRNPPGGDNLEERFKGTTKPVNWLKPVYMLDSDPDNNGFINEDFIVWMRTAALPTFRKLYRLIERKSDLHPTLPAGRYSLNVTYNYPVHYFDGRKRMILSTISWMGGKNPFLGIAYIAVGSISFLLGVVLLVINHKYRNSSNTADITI
# B2: Phospholipid-transporting ATPase IF (Homo sapiens), Q9Y2G3 (parent)
# chain: MWRWIRQQLGFDPPHQSDTRTIYVANRFPQNGLYTPQKFIDNRIISSKYTVWNFVPKNLFEQFRRVANFYFLIIFLVQLMIDTPTSPVTSGLPLFFVITVTAIKQGYEDWLRHNSDNEVNGAPVYVVRSGGLVKTRSKNIRVGDIVRIAKDEIFPADLVLLSSDRLDGSCHVTTASLDGETNLKTHVAVPETALLQTVANLDTLVAVIECQQPEADLYRFMGRMIITQQMEEIVRPLGPESLLLRGARLKNTKEIFGVAVYTGMETKMALNYKSKSQKRSAVEKSMNTFLIIYLVILISEAVISTILKYTWQAEEKWDEPWYNQKTEHQRNSSKILRFISDFLAFLVLYNFIIPISLYVTVEMQKFLGSFFIGWDLDLYHEESDQKAQVNTSDLNEELGQVEYVFTDKTGTLTENEMQFRECSINGMKYQEINGRLVPEGPTPDSSEGNLSYLSSLSHLNNLSHLTTSSSFRTSPENETELIKEHDLFFKAVSLCHTVQISNVQTDCTGDGPWQSNLAPSQLEYYASSPDEKALVEAAARIGIVFIGNSEETMEVKTLGKLERYKLLHILEFDSDRRRMSVIVQAPSGEKLLFAKGAESSILPKCIGGEIEKTRIHVDEFALKGLRTLCIAYRKFTSKEYEEIDKRIFEARTALQQREEKLAAVFQFIEKDLILLGATAVEDRLQDKVRETIEALRMAGIKVWVLTGDKHETAVSVSLSCGHFHRTMNILELINQKSDSECAEQLRQLARRITEDHVIQHGLVVDGTSLSLALREHEKLFMEVCRNCSAVLCCRMAPLQKAKVIRLIKISPEKPITLAVGDGANDVSMIQEAHVGIGIMGKEGRQAARNSDYAIARFKFLSKLLFVHGHFYYIRIATLVQYFFYKNVCFITPQFLYQFYCLFSQQTLYDSVYLTLYNICFTSLPILIYSLLEQHVDPHVLQNKPTLYRDISKNRLLSIKTFLYWTILGFSHAFIFFFGSYLLIGKDTSLLGNGQMFGNWTFGTLVFTVMVITVTVKMALETHFWTWINHLVTWGSIIFYFVFSLFYGGILWPFLGSQNMYFVFIQLLSSGSAWFAIILMVVTCLFLDIIKKVFDRHLHPTSTEKAQLTETNAGIKCLDSMCCFPEGEAACASVGRMLERVIGRCSPTHISRSWSASDPFYTNDRSILTLSTMDSSTC
# partner: B1 partner
# B3: Phospholipid-transporting ATPase IG (Homo sapiens), Q8NB49 (parent)
# chain: MQMVPSLPPASECAGEEKRVGTRTVFVGNHPVSETEAYIAQRFCDNRIVSSKYTLWNFLPKNLFEQFRRIANFYFLIIFLVQVTVDTPTSPVTSGLPLFFVITVTAIKQGYEDCLRHRADNEVNKSTVYIIENAKRVRKESEKIKVGDVVEVQADETFPCDLILLSSCTTDGTCYVTTASLDGESNCKTHYAVRDTIALCTAESIDTLRAAIECEQPQPDLYKFVGRINIYSNSLEAVARSLGPENLLLKGATLKNTEKIYGVAVYTGMETKMALNYQGKSQKRSAVEKSINAFLIVYLFILLTKAAVCTTLKYVWQSTPYNDEPWYNQKTQKERETLKVLKMFTDFLSFMVLFNFIIPVSMYVTVEMQKFLGSFFISWDKDFYDEEINEGALVNTSDLNEELGQVDYVFTDKTGTLTENSMEFIECCIDGHKYKGVTQEVDGLSQTDGTLTYFDKVDKNREELFLRALCLCHTVEIKTNDAVDGATESAELTYISSSPDEIALVKGAKRYGFTFLGNRNGYMRVENQRKEIEEYELLHTLNFDAVRRRMSVIVKTQEGDILLFCKGADSAVFPRVQNHEIELTKVHVERNAMDGYRTLCVAFKEIAPDDYERINRQLIEAKMALQDREEKMEKVFDDIETNMNLIGATAVEDKLQDQAAETIEALHAAGLKVWVLTGDKMETAKSTCYACRLFQTNTELLELTTKTIEESERKEDRLHELLIEYRKKLLHEFPKSTRSFKKAWTEHQEYGLIIDGSTLSLILNSSQDSSSNNYKSIFLQICMKCTAVLCCRMAPLQKAQIVRMVKNLKGSPITLSIGDGANDVSMILESHVGIGIKGKEGRQAARNSDYSVPKFKHLKKLLLAHGHLYYVRIAHLVQYFFYKNLCFILPQFLYQFFCGFSQQPLYDAAYLTMYNICFTSLPILAYSLLEQHINIDTLTSDPRLYMKISGNAMLQLGPFLYWTFLAAFEGTVFFFGTYFLFQTASLEENGKVYGNWTFGTIVFTVLVFTVTLKLALDTRFWTWINHFVIWGSLAFYVFFSFFWGGIIWPFLKQQRMYFVFAQMLSSVSTWLAIILLIFISLFPEILLIVLKNVRRRSARRNLSCRRASDSLSARPSVRPLLLRTFSDESNVL
# partner: B1 partner
# B4: Phospholipid-transporting ATPase VA (Homo sapiens), O60312 (parent)
# chain: MEREPAGTEEPGPPGRRRRREGRTRTVRSNLLPPPGAEDPAAGAAKGERRRRRGCAQHLADNRLKTTKYTLLSFLPKNLFEQFHRPANVYFVFIALLNFVPAVNAFQPGLALAPVLFILAITAFRDLWEDYSRHRSDHKINHLGCLVFSREEKKYVNRFWKEIHVGDFVRLRCNEIFPADILLLSSSDPDGLCHIETANLDGETNLKRRQVVRGFSELVSEFNPLTFTSVIECEKPNNDLSRFRGCIIHDNGKKAGLYKENLLLRGCTLRNTDAVVGIVIYAGHETKALLNNSGPRYKRSKLERQMNCDVLWCVLLLVCMSLFSAVGHGLWIWRYQEKKSLFYVPKSDGSSLSPVTAAVYSFLTMIIVLQVLIPISLYVSIEIVKACQVYFINQDMQLYDEETDSQLQCRALNITEDLGQIQYIFSDKTGTLTENKMVFRRCTVSGVEYSHDANAQRLARYQEADSEEEEVVPRGGSVSQRGSIGSHQSVRVVHRTQSTKSHRRTGSRAEAKRASMLSKHTAFSSPMEKDITPDPKLLEKVSECDKSLAVARHQEHLLAHLSPELSDVFDFFIALTICNTVVVTSPDQPRTKVRVRFELKSPVKTIEDFLRRFTPSCLTSGCSSIGSLAANKSSHKLGSSFPSTPSSDGMLLRLEERLGQPTSAIASNGYSSQADNWASELAQEQESERELRYEAESPDEAALVYAARAYNCVLVERLHDQVSVELPHLGRLTFELLHTLGFDSVRKRMSVVIRHPLTDEINVYTKGADSVVMDLLQPCSSVDARGRHQKKIRSKTQNYLNVYAAEGLRTLCIAKRVLSKEEYACWLQSHLEAESSLENSEELLFQSAIRLETNLHLLGATGIEDRLQDGVPETISKLRQAGLQIWVLTGDKQETAVNIAYACKLLDHDEEVITLNATSQEACAALLDQCLCYVQSRGLQRAPEKTKGKVSMRFSSLCPPSTSTASGRRPSLVIDGRSLAYALEKNLEDKFLFLAKQCRSVLCCRSTPLQKSMVVKLVRSKLKAMTLAIGDGANDVSMIQVADVGVGISGQEGMQAVMASDFAVPKFRYLERLLILHGHWCYSRLANMVLYFFYKNTMFVGLLFWFQFFCGFSASTMIDQWYLIFFNLLFSSLPPLVTGVLDRDVPANVLLTNPQLYKSGQNMEEYRPRTFWFNMADAAFQSLVCFSIPYLAYYDSNVDLFTWGTPIVTIALLTFLLHLGIETKTWTWLNWITCGFSVLLFFTVALIYNASCATCYPPSNPYWTMQALLGDPVFYLTCLMTPVAALLPRLFFRSLQGRVFPTQLQLARQLTRKSPRRCSAPKETFAQGRLPKDSGTEHSSGRTVKTSVPLSQPSWHTQQPVCSLEASGEPSTVDMSMPVREHTLLEGLSAPAPMSSAPGEAVLRSPGGCPEESKVRAASTGRVTPLSSLFSLPTFSLLNWISSWSLVSRLGSVLQFSRTEQLADGQAGRGLPVQPHSGRSGLQGPDHRLLIGASSRRSQ
# partner: B1 partner
# Variants of: B1
# Conditions: with cc50a_human TMEM30A
row,Variant,effect of a mutation on the interaction
1,G185L,disrupting interaction strength
2,D414N,disrupting interaction strength
3,E186Q,increasing interaction strength

# Variants of: B2
# Conditions: with cc50a_human TMEM30A
row,Variant,effect of a mutation on the interaction
1,G179L,decreasing interaction strength
2,E180Q,increasing interaction strength
3,D407N,disrupting interaction strength

# Variants of: B3
# Conditions: with cc50a_human TMEM30A
row,Variant,effect of a mutation on the interaction
1,G183L,disrupting interaction strength
2,E184Q,increasing interaction strength
3,D412N,disrupting interaction strength

# Variants of: B4
# Conditions: with cc50a_human TMEM30A
row,Variant,effect of a mutation on the interaction
1,G202L,disrupting interaction strength
2,E203Q,increasing interaction strength
3,D427N,disrupting interaction strength
